Drawing on PMC5962637, “Simultaneous cell disruption and semi-quantitative activity assays for high-throughput screening of thermostable L-asparaginases” (Scientific Reports, 2018), this text covers Km for one protein.

Substrate in this data set: NC(=O)C[C@H](N)C(=O)O
The data set is described as follows: ammonia release with Nessler's reagent, A450; Michaelis-Menten plot. It is filed as biochemical, Pyrococcus yayanosii. Conditions: 50 mM Tris-HCl pH 8.0, 95 °C, substrate range 0.05-2.0 mM.

B1: P. yayanosii CH1 L-asparaginase (pyasnase) (Pyrococcus yayanosii CH1) (protein)
chain: MRLLILGMGGTIASVPSEEGYESSLSVEEILRLAGLELKWEVEARDLLNIDSTLIQPEDWVLLAETVFEAFEEFDGVVITHGTDTLAYTASMLSFMVRNPPVPIVLTGAMRPITEPGSDAPRNLWTALRFAIEGVPGVYVAFMDKVMLGVRVSKVRAVGLNAFQSINYPDIAYVKGNRIHWNAKPPKLEGEPVLDTRHEPRVLVLRLVPGMEGDVLEAALELGYRGIVLEGYGVGGIPYRGRDLLDVVRRVATEIPVVMTTQTLYDGVDLTKYKVGRKALEVGVIPAGDMTKEATITKLMWILGHTRDVGEVRRLMLTNMVGEIGKSA
notes: C-terminal His-tag (in primer R1); codon-optimised synthetic gene, pMA5, Bacillus subtilis 168; homodimer (homology model)
For orientation: Km means the substrate concentration at which the rate is half of its maximum. For B1, the Km came to 6.5 mM.
